Substrate: [N-]=[N+]=NCCCCCCCC(=O)O
Assay: Measurement of LplA-probe ligation kinetics (HPLC)
Type: biochemical, E. coli
Conditions: other: ligation to E2p, 200 nM LplA; pH 7.0; 30.0 °C
Protocol: To measure the kcat for LplA ligation of lipoic acid to E2p, 50 nM LplA was combined with 200 μM E2p, 750 μM lipoic acid, […], and 2 mM magnesium acetate in 25 mM sodium phosphate pH 7.0. The reaction was initiated with addition of 1 mM ATP to the pre-warmed (30° C.) mixture. The reaction was incubated at 30° C., and 90 μL aliquots were removed every 5 minutes and quenched with 50 mM EDTA (final concentration). Samples were analyzed by C18 reverse-phase HPLC as described in the “Methods” section. Measurements were performed in triplicate. A calibration curve was obtained that correlated the ratio of integrated HPLC peak areas (E2p:E2p-probe) to the actual protein ratio, in order to compensate for differences in the extinction coefficients of E2p and lipoylated E2p. The amount of product obtained at each time point was plotted against time, to obtain the Vmax of the reaction. From this, the kcat value was obtained using the equation Vmax=kcat [E]total.
90 μL aliquots were removed from the 30° C. reactions at 5 minutes intervals, up to 30 minutes, and quenched with 50 mM EDTA (final concentration). Samples were analyzed by HPLC as above. The amount of product obtained at each time point was plotted against time, to obtain the initial velocity for each concentration of azide 7. […] From the Vmax value, kcat was calculated using the equation Vmax=kcat [E]total.

B1: E. coli LplA (Escherichia coli K-12) (protein)
chain: STLRLLISDSYDPWFNLAVEECIFRQMPATQRVLFLWRNADTVVIGRAQNPWKECNTRRMEEDNVRLARRSSGGGAVFHDLGNTCFTFMAGKPEYDKTISTSIVLNALNALGVSAEASGRNDLVVKTVEGDRKVSGSAYRETKDRGFHHGTLLLNADLSRLANYLNPDKKKLAAKGITSVRSRVTNLTELLPGITHEQVCEAITEAFFAHYGERVEAEIISPNKTPDLPNFAETFARQSSWEWNFGQAPAFSHLLDERFTWGGVELHFDVEKGHITRAQVFTDSLNPAPLEALAGRLQGCLYRADMLQQECEALLVDFPEQEKELRELSAWMAGAVR
**Q.** How did the Km turn out when B1 was run?
**A.** Its Km is 127 ± 11 µM.

From patent publication US9284541B2, “Methods and compositions for protein labeling using lipoic acid ligases” (Massachusetts Institute of Technology, priority 2007, dated 2016)
